Measurements published in patent US20230265169A1 (US Dept. of Health and Human Services, published 2023).
Where a chain is given by its changes, count along the chain named.

T1: MERS-CoV spike protein on live MERS-CoV (EMC, KNIH-002, KNIH-016 and KNIH-042 strains) (MERS-CoV)
T1 chain: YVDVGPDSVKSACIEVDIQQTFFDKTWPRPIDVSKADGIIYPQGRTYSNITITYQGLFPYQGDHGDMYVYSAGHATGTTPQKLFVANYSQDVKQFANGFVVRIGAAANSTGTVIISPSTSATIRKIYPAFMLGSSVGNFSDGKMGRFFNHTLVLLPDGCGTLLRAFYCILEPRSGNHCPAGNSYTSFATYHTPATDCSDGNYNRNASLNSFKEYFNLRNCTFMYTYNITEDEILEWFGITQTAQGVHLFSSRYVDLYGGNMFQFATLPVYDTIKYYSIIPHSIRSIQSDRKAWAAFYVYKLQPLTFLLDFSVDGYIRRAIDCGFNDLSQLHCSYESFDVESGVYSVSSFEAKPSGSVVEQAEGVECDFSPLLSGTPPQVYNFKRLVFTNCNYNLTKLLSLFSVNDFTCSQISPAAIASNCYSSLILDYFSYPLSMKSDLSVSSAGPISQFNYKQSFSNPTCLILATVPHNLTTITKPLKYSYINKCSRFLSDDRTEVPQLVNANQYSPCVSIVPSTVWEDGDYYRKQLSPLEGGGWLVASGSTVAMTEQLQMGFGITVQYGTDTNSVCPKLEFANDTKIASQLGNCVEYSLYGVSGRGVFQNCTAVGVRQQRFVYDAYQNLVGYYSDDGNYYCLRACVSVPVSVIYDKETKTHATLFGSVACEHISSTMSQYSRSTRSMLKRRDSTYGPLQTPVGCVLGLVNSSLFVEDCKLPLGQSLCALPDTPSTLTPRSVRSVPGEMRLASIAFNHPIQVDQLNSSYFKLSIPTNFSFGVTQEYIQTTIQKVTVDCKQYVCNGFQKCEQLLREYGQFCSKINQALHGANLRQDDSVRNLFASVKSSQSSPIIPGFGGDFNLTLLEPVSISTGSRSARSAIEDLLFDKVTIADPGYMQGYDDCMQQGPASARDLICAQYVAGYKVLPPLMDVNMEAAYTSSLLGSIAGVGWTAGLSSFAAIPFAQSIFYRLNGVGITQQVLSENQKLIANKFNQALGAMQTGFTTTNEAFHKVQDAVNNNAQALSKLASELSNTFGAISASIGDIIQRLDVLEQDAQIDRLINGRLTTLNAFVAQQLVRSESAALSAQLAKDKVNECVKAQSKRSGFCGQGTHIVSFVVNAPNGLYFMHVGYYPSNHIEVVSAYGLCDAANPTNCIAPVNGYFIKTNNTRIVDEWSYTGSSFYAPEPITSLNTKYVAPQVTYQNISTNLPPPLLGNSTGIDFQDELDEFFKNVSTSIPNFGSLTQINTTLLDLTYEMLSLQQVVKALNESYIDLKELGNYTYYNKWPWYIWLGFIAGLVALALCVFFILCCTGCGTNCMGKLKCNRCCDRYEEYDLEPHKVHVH

B1: 90-F2 antibody (antibody, V domains shown)
VH: QVQLVQSGAEVKKPGASVKVSCKASGYTFTTYYMHWVRQAPGQGLEWMGIINPSGGSTSYAQKFQGRVTMTRDTSTSTVYMELSSLRSEDTAVYYCARGAVVVILDYWGQGTLVTVSS
VL: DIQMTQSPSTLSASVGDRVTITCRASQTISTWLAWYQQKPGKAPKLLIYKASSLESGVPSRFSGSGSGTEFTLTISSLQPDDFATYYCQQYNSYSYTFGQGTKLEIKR
B2: 90-F1 antibody (antibody, V domains shown)
VH: QVQLVQSGAEVKRPGSSVKVSCKTSGGTFNNNAINWVRQAPGQGLEWMGGIIPFFGIAKYAQKFQGRVTITADESTSTAYMELSSLRSEDTAVYYCARDLPRESSYGSGSYYTHYYAMDVWGQGTTVTVSS
VL: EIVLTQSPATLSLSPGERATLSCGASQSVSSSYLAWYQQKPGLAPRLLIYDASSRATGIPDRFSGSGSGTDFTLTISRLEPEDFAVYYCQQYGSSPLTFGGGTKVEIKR
B3: 90-E6 antibody (antibody, V domains shown)
VH: EVQLVESGGGLVQPGRSLRLSCAASGFTFDDHAMHWVRQAPGKGLEWVSGFSWNSGSIGYADSVKGRFTISRDNAKNSLYLQMNSLRAEDTALYYCAKDRRSDYYFYGMDVWGQGTTVTVSS
VL: QSVLTQPPSVSAAPGQKVTISCSGSRSNIGNNYVSWYQQLPGTAPKLLIYDNNKRPSGIPDRFSGSKSGTSATLGITGLQTGDEADYYCGTWDSSLNAGVFGGGTKLTVLG
B4: 77-A6 antibody (antibody, V domains shown)
VH: EVQLLESGGGLVQPGGSLRLSCADSGLTFSSYAMSWVRQAPGKGLEWVSAISVSGGSTYYSDSVKGRFTISRDNSKNTLSLQMNSLRAEDTAVYYCVKARSIVGPFDYWGQGTLVTVSS
VL: B3 VL with V3A, R26S, Q39H, N53I, K54M, S94T, N97S, G99V
B5: 90-B7 antibody (antibody, V domains shown)
VH: EVQLLESGGGLVKPGGSLRLSCAASGFTFGSYSMTWVRQAPGKGLEWVSSISSSSSYIYYADSVKGRFTISRDNAKNSLFLQMNSLRAEDTAVYYCARGNGYCSHNSCYKIGVWFDPWGQGTLVTVSS
VL: B3 VL with S2A, L4V, R26S, N97S, G99F, G103T, L107V
B6: 90-A3 antibody (antibody, V domains shown)
VH: QVQLVQSGAEVKKPGASVKVSCMTSGYTFTSYGISWVRQAPGQGLEWMGWISAYNGNTNYAQKLQGRVTMTTDTSTSTAYMELRSLRSDDTAVYYCARDRGAYWDCGGDCYLSAFDYWGQGTLVTVSS
VL: B3 VL with S2A, L4V, R26S, N97S, G99V
B7: 90-B2 antibody (antibody, V domains shown)
VH: QVQLQESGPGLVKPSETLSLTCTVSGGSISSSSYYWGWIRQPPGKGLEWIGSIYYSGNTYYNPSLKSRVTISVDTSKNHFSLRLSSVTAADTAVYFCARSLPHYDSTGYLLYWGQGTLVTVSS
VL: EIVLTQSPATLSLSPGGRATLSCRASQSVSRYLAWYQQKPGRAPRLLIYDASNRAPGIPARFSGSGSGTDFTLTISSLEPEDFAVYYCQQRSNWPQTTFGPGTKVDIKR
B8: 90-A9 antibody (antibody, V domains shown)
VH: QVQLVQSGAEVKKPGSSVKVSCKASGGTFSSFPISWVRQAPGQGLEWMGGIIPIFGAANYAQKFQGRVTITADESTSTAYMELSSLRSEDTAVYYCARNYEEIVVIPAIMNFGYWGQGTLVTVSS
VL: EIVLTQSPGTLSLSPGERATLSCRASQSVASSYLAWYQQKPGQAPRLLIYGTSSRATGIPDRFSGSGSGADFTLTISRLEPEDFAVYYCQQYGTSPLTFGGGTKVEIK
B9: 90-C4 antibody (antibody, V domains shown)
VH: QVQLQESGPGLVKPSGTLSLTCAVSGGSINSSNWWSWVRQPPGKGLEWIGEIYYSGSTNYNPSLKSRVTTSVDNSKNQFSLKLSSVTAADTAVYYCATFDSGGYNPNWFDPWGQGTLVTVSS
VL: QSALTQPPSVSGAPGQRVTISCTGSSSSIGAGYDVHWYQQLPGTAPKLLIYGNSNRPSGVPDRFSGSKSGTSASLAITGLQAEDEADYYCQSYDSSLSGYVFGTGTKVTVLG
B10: 90-E5 antibody (antibody, V domains shown)
VH: QVQLVQSGAEVKKPGSSVKVSCKASGGTFSSYTINWVRQAPGQGLEWMGGIIPIFGTANYAQKFQGRVTITADASTSTAYMELSSLRSEDTAVYYCARVLLRSSSWFSSNWFDPWGQGTLVTVSS
VL: QSVLTQPPSVSGAPGQRVTISCTGSSSNIGAGYDVHWYQQLPGTAPKVLIYGNSNRPSGVPDRFSGSKSDTSASLAITGLQAEDEADYYCQSYDSSLSVVFGGGTKLTVLG
B11: 77-A5 antibody (antibody, V domains shown)
VH: QVQLVQSGAEVKKPGSSVKVSCKASGGTFRSHAISWVRQAPGQGLEWMGGIIPIFASANYAQKFQGRVTITADESTSTAYMDLSSLRSDDTAVYYCAKNVSPKSYSGRYSISYFYGVDVWGQGTTVTVSS
VL: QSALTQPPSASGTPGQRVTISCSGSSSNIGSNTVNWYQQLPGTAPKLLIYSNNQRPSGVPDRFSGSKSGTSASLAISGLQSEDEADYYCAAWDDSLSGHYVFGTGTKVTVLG

How the values were obtained:
[1] = target: T2, MERS-CoV RBD antigen (receptor binding domain, amino acids 377 to 588 of the spike protein) (MERS-CoV, UniProt K9N5Q8 377-588); assay: SPR, RBD antigen on CM5 chip, antibody as analyte (called avidity)
[2] = target: T3, MERS-CoV S1 antigen (S1 domain, amino acids 1 to 757 of the spike protein) (MERS-CoV, UniProt K9N5Q8 18-757); assay: SPR, S1 antigen on CM5 chip, antibody as analyte (called avidity)
T3 construct: also called MERS-CoV S1 domain

[3] = target: T1, MERS-CoV spike protein on live MERS-CoV …; assay: cell-based or functional assay; design: ND50 (PRNT with MERS-CoV): unit not given beside the values
[4] = target: T2, MERS-CoV RBD antigen (receptor binding …)
[5] = target: T2, MERS-CoV RBD antigen (receptor binding …); assay: SPR, RBD antigen attached on a CM5 chip, antibody loaded, HBS-EP
[6] = target: T2, MERS-CoV RBD antigen (receptor binding …); assay: ELISA, RBD antigen coated
[7] = target: MERS-CoV full-length spike trimer antigen (amino acids 1 to 1275 of the spike protein, lacking the … (MERS-CoV, UniProt K9N5Q8 18-1275))
[8] = target: T3, MERS-CoV S1 antigen (S1 domain, amino …)

Binder	Kd [1] [nM]	koff [1] [s⁻¹]	kon [1] [M⁻¹ s⁻¹]	Kd [2] [nM]	koff [2] [s⁻¹]	kon [2] [M⁻¹ s⁻¹]	ND50 (PRNT with MERS-CoV) [3]	ND50 antibody conc. (PRNT with MERS-CoV) [3] [µg/mL]	EC50 (read off the curve) [4] [µg/mL]	binding result [5]	binding result [6]	EC50 (read off the curve) [7] [µg/mL]	EC50 (read off the curve) [8] [µg/mL]
B1	5.86	0.0014	238000	6.6	0.000882	134000	54	0.19	~0.07				
B2	0.072	2.71e-05	376000	0.153	9.88e-05	648000	956	0.01					
B3							0.68	14.8	~0.09				
B4	0.673	3.15e-05	46700	0.695	4.43e-05	63800	95.7	0.1	~0.06				
B5				0.153	0.000104	681000	14.9	0.67		no binding (tested: 500 nM)			
B6							0.63	15.8			no binding (tested: up to 10 µg/ml)		
B7				≤ 0.0751	≤ 1e-05	131000	39.5	0.25		no binding (tested: 500 nM)			
B8							0.58	17.3			no binding (tested: up to 10 µg/ml)		
B9							0.78	12.8			no binding (tested: up to 10 µg/ml)	~0.08	
B10							6.6	1.51	~0.07			~0.01	~0.03
B11	0.161	2.08e-05	130000	≤ 0.0751	≤ 1e-05	133000	35.6	0.28	~0.008				
